Data: publication PMC10397247

Tests used:
Test in all cases: two-hybrid library CCNG1;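 further: natural log of median RNA to DNA barcode read ratio; higher means stronger binding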
P4A-bN = molecular target: T1, P4A-bN
T1 chain: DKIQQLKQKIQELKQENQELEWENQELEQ

P6A-bN = molecular target: T2, P6A-bN
T2 chain: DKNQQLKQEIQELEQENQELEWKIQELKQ

P1A-bN = molecular target: T3, P1A-bN
T3 chain: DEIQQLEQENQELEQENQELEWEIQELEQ

P11A-bN = molecular target: T4, P11A-bN
T4 chain: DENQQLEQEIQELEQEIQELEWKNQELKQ

P8A-bN = molecular target: T5, P8A-bN
T5 chain: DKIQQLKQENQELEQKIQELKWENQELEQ

P9A-bN = molecular target: T6, P9A-bN
T6 chain: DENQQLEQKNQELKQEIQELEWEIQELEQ

P7A-bN = molecular target: T7, P7A-bN
T7 chain: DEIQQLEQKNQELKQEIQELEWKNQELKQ

P2A-bN = molecular target: T8, P2A-bN
T8 chain: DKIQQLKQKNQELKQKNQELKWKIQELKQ

P3A-bN = molecular target: T9, P3A-bN
T9 chain: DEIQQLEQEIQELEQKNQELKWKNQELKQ

P5A-bN = molecular target: T10, P5A-bN
T10 chain: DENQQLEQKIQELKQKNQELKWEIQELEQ

P12A-bN = molecular target: T11, P12A-bN
T11 chain: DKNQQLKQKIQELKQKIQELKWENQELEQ

4H2697-bH = molecular target: T12, 4H2697-bH
T12 chain: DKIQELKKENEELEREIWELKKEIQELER

4H883-bH = molecular target: T13, 4H883-bH
T13 chain: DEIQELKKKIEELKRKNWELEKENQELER

4H2576-bH = molecular target: T14, 4H2576-bH
T14 chain: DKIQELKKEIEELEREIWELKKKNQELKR

4H3782-bH = molecular target: T15, 4H3782-bH
T15 chain: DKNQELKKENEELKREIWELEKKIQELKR

4H3843-bH = molecular target: T16, 4H3843-bH
T16 chain: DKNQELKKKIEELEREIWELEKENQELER

O9-bN = molecular target: T17, O9-bN
T17 chain: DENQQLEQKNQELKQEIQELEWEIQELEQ

4H72-bH = molecular target: T18, 4H72-bH
T18 chain: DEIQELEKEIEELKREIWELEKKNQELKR

4H462-bH = molecular target: T19, 4H462-bH
T19 chain: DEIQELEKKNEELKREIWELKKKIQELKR

4H1845-bH = molecular target: T20, 4H1845-bH
T20 chain: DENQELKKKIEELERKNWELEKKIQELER

4H687-bH = molecular target: T21, 4H687-bH
T21 chain: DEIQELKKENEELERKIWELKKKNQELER

4H797-bH = molecular target: T22, 4H797-bH
T22 chain: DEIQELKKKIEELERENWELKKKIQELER

4H4001-bH = molecular target: T23, 4H4001-bH
T23 chain: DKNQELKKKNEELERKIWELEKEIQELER

4H3606-bH = molecular target: T24, 4H3606-bH
T24 chain: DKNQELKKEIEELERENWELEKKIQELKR

4H331-bH = molecular target: T25, 4H331-bH
T25 chain: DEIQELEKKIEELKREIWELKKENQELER

4H1446-bH = molecular target: T26, 4H1446-bH
T26 chain: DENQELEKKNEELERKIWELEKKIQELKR

4H607-bH = molecular target: T27, 4H607-bH
T27 chain: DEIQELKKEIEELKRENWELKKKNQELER

4H2610-bH = molecular target: T28, 4H2610-bH
T28 chain: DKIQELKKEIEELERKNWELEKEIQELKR

4H918-bH = molecular target: T29, 4H918-bH
T29 chain: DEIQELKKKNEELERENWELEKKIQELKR

4H3189-bH = molecular target: T30, 4H3189-bH
T30 chain: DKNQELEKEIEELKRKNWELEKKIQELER

4H568-bH = molecular target: T31, 4H568-bH
T31 chain: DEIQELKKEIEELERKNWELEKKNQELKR

4H953-bH = molecular target: T32, 4H953-bH
T32 chain: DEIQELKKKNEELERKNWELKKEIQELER

4H1369-bH = molecular target: T33, 4H1369-bH
T33 chain: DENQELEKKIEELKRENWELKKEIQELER

4H2667-bH = molecular target: T34, 4H2667-bH
T34 chain: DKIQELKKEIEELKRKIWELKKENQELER

4H370-bH = molecular target: T35, 4H370-bH
T35 chain: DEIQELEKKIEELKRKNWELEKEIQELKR

4H967-bH = molecular target: T36, 4H967-bH
T36 chain: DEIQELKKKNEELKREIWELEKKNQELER

4H908-bA = molecular target: T37, 4H908-bA
T37 chain: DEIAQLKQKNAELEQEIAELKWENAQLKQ

4H918-bA = molecular target: T38, 4H918-bA
T38 chain: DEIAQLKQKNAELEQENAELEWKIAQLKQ

4H967-bA = molecular target: T39, 4H967-bA
T39 chain: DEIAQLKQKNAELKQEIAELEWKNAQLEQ

4H953-bA = molecular target: T40, 4H953-bA
T40 chain: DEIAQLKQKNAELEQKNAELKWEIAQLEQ

4H968-bA = molecular target: T41, 4H968-bA
T41 chain: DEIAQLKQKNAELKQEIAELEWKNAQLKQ

4H575-bA = molecular target: T42, 4H575-bA
T42 chain: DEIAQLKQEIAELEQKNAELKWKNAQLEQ

4H2627-bA = molecular target: T43, 4H2627-bA
T43 chain: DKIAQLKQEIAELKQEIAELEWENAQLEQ

4H797-bA = molecular target: T44, 4H797-bA
T44 chain: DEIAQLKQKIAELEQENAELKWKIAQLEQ

4H3427-bA = molecular target: T45, 4H3427-bA
T45 chain: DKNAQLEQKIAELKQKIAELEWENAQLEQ

4H2673-bA = molecular target: T46, 4H2673-bA
T46 chain: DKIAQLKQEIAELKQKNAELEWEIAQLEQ

4H2586-bA = molecular target: T47, 4H2586-bA
T47 chain: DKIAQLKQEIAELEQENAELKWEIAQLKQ

4H2702-bA = molecular target: T48, 4H2702-bA
T48 chain: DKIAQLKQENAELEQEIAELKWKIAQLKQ

4H457-bA = molecular target: T49, 4H457-bA
T49 chain: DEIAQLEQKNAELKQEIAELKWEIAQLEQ

4H2253-bA = molecular target: T50, 4H2253-bA
T50 chain: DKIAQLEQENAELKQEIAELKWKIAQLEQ

4H3010-bA = molecular target: T51, 4H3010-bA
T51 chain: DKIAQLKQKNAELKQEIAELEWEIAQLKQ

4H1831-bA = molecular target: T52, 4H1831-bA
T52 chain: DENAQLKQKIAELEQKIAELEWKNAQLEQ

4H118-bA = molecular target: T53, 4H118-bA
T53 chain: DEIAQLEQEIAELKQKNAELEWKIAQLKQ

4H170-bA = molecular target: T54, 4H170-bA
T54 chain: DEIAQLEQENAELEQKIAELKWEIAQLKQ

4H754-bA = molecular target: T55, 4H754-bA
T55 chain: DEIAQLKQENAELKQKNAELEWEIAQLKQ

4H683-bA = molecular target: T56, 4H683-bA
T56 chain: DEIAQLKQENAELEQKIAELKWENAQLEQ

4H3112-bA = molecular target: T57, 4H3112-bA
T57 chain: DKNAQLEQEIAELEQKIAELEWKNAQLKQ

4H4073-bA = molecular target: T58, 4H4073-bA
T58 chain: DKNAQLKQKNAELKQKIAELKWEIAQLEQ

4H3926-bA = molecular target: T59, 4H3926-bA
T59 chain: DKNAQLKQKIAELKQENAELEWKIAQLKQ

4H346-bA = molecular target: T60, 4H346-bA
T60 chain: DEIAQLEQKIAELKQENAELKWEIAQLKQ

4H855-bA = molecular target: T61, 4H855-bA
T61 chain: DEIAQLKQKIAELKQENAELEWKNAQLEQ

4H1158-bA = molecular target: T62, 4H1158-bA
T62 chain: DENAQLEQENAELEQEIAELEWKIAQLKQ

4H780-bA = molecular target: T63, 4H780-bA
T63 chain: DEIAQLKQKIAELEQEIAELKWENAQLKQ

DENQQLEQEIQELEQEIQELEWKNQELKQ [P11A-bN]
interaction score (P4A-bN): 1.12
interaction score (P6A-bN): -0.465
interaction score (P1A-bN): -0.501
interaction score (P11A-bN): 0.856
interaction score (P8A-bN): 0.54
interaction score (P9A-bN): 0.422
interaction score (P7A-bN): -0.868
interaction score (P2A-bN): 0.436
interaction score (P3A-bN): 0.143
interaction score (P5A-bN): -1.3
interaction score (P12A-bN): 0.458

DKNQQLKQENQELEQKIQELKWKIQELKQ [P10A-bN]
interaction score (P4A-bN): 0
interaction score (P6A-bN): -0.522
interaction score (P1A-bN): -0.0109
interaction score (P11A-bN): 0.197
interaction score (P8A-bN): -1.93
interaction score (P7A-bN): 0.528
interaction score (P2A-bN): -1.29
interaction score (P3A-bN): -2.58
interaction score (P5A-bN): -0.55
interaction score (P12A-bN): -0.334

DENQELEKKIEELKRENWELKKEIQELER [4H1369-bH]
interaction score (4H2697-bH): -0.653
interaction score (4H883-bH): -0.565
interaction score (4H2576-bH): -0.848
interaction score (4H3782-bH): -0.489
interaction score (4H3843-bH): -0.198
interaction score (O9-bN): -3.43
interaction score (4H72-bH): -1.58
interaction score (4H462-bH): -1.88
interaction score (4H1845-bH): -0.792
interaction score (4H687-bH): 0.994
interaction score (4H797-bH): -0.464
interaction score (4H4001-bH): -0.331
interaction score (4H3606-bH): 1.14
interaction score (4H331-bH): -0.491
interaction score (4H1446-bH): -1.19
interaction score (4H607-bH): -0.13
interaction score (4H2610-bH): 0.178
interaction score (4H918-bH): -1.26
interaction score (4H3189-bH): -0.572
interaction score (4H568-bH): -1.94
interaction score (4H953-bH): -0.636
interaction score (4H1369-bH): -0.455
interaction score (4H2667-bH): -0.433
interaction score (4H370-bH): -1.73
interaction score (4H967-bH): -0.723

DEIAQLKQKNAELEQEIAELKWENAQLKQ [4H908-bA]
interaction score (P11A-bN): 1.22
interaction score (4H908-bA): 0.539
interaction score (4H918-bA): 0.429
interaction score (4H967-bA): -0.532
interaction score (4H953-bA): -0.801

DENAQLEQENAELEQEIAELEWKIAQLKQ [4H1158-bA]
interaction score (4H968-bA): 0.0766
interaction score (4H575-bA): 0.324
interaction score (4H2627-bA): 1.15
interaction score (4H797-bA): 0
interaction score (4H3427-bA): 0.681
interaction score (4H2673-bA): -0.0392
interaction score (4H2586-bA): -0.706
interaction score (4H2702-bA): 0.584
interaction score (4H457-bA): 1.02
interaction score (4H2253-bA): 0.12
interaction score (4H3010-bA): 2.11
interaction score (4H1831-bA): 0.132
interaction score (4H118-bA): 0.591
interaction score (4H170-bA): -1.67
interaction score (4H754-bA): -0.283
interaction score (4H683-bA): -1.19
interaction score (4H918-bA): -0.069
interaction score (4H3112-bA): -0.0196
interaction score (4H4073-bA): 2.53
interaction score (4H3926-bA): 0.769
interaction score (4H346-bA): -0.31
interaction score (4H855-bA): 0.0299
interaction score (4H1158-bA): -0.559
interaction score (4H953-bA): -0.12
interaction score (4H780-bA): 0.459

DENQELEKKIEELERKIWELKKKNQELKR [4H1328-bH]
interaction score (4H2697-bH): 0.213
interaction score (4H883-bH): 0.137
interaction score (4H2576-bH): 1.67
interaction score (4H3782-bH): 0.448
interaction score (4H3843-bH): 1.38
interaction score (4H72-bH): 0.492
interaction score (4H462-bH): 0
interaction score (4H1845-bH): -0.384
interaction score (4H687-bH): -1.73
interaction score (4H797-bH): 0.552
interaction score (4H4001-bH): 1.01
interaction score (4H3606-bH): 0.235
interaction score (4H331-bH): 1.28
interaction score (4H1446-bH): 0.331
interaction score (4H607-bH): -1.86
interaction score (4H2610-bH): 0.958
interaction score (4H918-bH): -0.116
interaction score (4H3189-bH): -0.241
interaction score (4H568-bH): 0.634
interaction score (4H953-bH): -0.534
interaction score (4H1369-bH): -1.31
interaction score (4H2667-bH): -0.993
interaction score (4H370-bH): -0.934
interaction score (4H967-bH): -1.62
